From paper PMC12552129, “Methylthio-alkane reductases use nitrogenase metalloclusters for carbon–sulfur bond cleavage” (Nature Catalysis, 2025)
Where “and” joins values, the source holds several entries; their conditions need not be identical. Identical values can stand only once. Each block holds one binder with its values, some of them ahead of it.

Assays:
[1] = molecular target: T1, Mar(DK)2, catalytic component of the methylthio-alkane reductase from Rhodospirillum rubrum (Rhodospirillum rubrum, UniProt Q2RW97 1-511; Q2RW98 1-466); test: cryo-EM structure; MgADP-AlF3-trapped complex: 22 nmol MarH2 and 3 nmol Mar(DK)2 in 100 mM MOPS pH 7.3, 50 mM Tris pH 7.8, 100 mM NaCl, 5 mM DT, 4 mM NaF, 0.2 mM AlCl3, 8 mM MgCl2, 1 mM ATP, 3 h at 30 °C; isolated by size-exclusion chromatography (HiLoad 26/600 Superdex 200 pg); anaerobic single-particle cryo-EM; details: both partners purified
T1 construct: MarD of Rhodospirillum rubrum, as the chain of m2; MarK of Rhodospirillum rubrum, as the chain of m3; Heterotetramer by mass photometry (227 kDa measured, 217 kDa theoretical); holds two P-clusters and two [Fe8S9C]-clusters; No tag cleavage is described; The deposited model (MarDK2H2) holds only one of the two MarD copies; copies: 2 + 2
T1 sequence 1: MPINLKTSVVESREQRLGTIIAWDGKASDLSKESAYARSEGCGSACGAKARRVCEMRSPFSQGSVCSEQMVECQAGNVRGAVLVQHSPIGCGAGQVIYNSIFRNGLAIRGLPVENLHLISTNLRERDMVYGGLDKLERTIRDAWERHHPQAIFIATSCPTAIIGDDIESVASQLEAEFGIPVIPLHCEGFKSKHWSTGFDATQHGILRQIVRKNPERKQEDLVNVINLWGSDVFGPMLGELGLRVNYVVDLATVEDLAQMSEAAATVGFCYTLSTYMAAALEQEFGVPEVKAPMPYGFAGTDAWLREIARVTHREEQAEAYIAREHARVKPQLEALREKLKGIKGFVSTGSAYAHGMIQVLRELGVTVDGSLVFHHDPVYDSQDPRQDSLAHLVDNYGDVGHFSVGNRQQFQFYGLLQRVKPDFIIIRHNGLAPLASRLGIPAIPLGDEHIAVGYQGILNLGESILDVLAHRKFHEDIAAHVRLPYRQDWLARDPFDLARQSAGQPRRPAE
T1 sequence 2: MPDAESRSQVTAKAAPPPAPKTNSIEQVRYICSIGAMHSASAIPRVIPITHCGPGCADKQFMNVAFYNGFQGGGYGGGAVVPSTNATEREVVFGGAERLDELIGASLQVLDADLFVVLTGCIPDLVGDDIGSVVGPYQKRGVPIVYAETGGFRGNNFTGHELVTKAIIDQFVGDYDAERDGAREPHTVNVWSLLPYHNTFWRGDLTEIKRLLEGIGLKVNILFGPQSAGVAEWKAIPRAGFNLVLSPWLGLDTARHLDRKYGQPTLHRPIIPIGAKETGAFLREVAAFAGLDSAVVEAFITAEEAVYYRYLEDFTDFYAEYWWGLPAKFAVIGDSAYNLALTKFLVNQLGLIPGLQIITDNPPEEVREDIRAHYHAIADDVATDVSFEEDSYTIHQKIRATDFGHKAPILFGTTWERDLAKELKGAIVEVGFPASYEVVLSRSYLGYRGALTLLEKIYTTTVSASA

[2] = molecular target: the molecule itself; test: mass photometry; TwoMP mass photometer; 0.5 µl of sample (500 nM stock, 4 mM sodium DT) added to 19.5 µl anaerobic measurement buffer (150 mM NaCl, 50 mM Tris pH 7.8, 10% glycerol, 10 mM sodium DT); each component measured alone
[3] = molecular target: T2, MarD subunit of the methylthio-alkane reductase catalytic component from Rhodospirillum rubrum (Strep-tagged) (Rhodospirillum rubrum, UniProt Q2RW97 1-511); test: as above; details: both partners purified
T2 construct: MarD, subunit of the catalytic component of the methylthio-alkane reductase (marHDK) of Rhodospirillum rubrum; 57.5 kDa with the Strep tag; Holds the [Fe8S9C]-cluster; also called D1; source: Rhodobacter capsulatus MM0422 (plasmid-based, anfH promoter), soluble fraction of the lysate; purified anaerobically with MarK (Strep-Tactin XT 4Flow, PD-10 desalting); not shown: Strep-tag II, C-terminal, …
T2 sequence: T1 sequence 1

- stoichiometry N [1]: 1 and 2
B1: MarH2, reductase component of the methylthio-alkane reductase from Rhodospirillum rubrum (His-tagged MarH) (enzyme)
chain: AKSPKQIAIYGKGGIGKSTTTSNISAALAEAGYKVMQFGCDPKSDSTNTLRGGDYIPSVLDLLRENARVDAHEAIFQGFGGIYCVEAGGPAPGVGCAGRGIITAVELLKQQNVFEELDLDYVIFDVLGDVVCGGFAVPIREGIAEHVFTVSSSDFMAIYAANNLFKGIQKYSNAGGALLGGVIANSINTDFHRDIIDDFVARTQTQVVQYVPRSLTVTQAELQGRTTIEAAPESAQAEIYRTLARSIADHTDSKVPTPLNAQELRDWSASWANQLIEIERASQPIPALAS
notes: MarH, reductase subunit of the methylthio-alkane reductase (marHDK) of Rhodospirillum rubrum; 31.9 kDa with the His tag; Homodimer by mass photometry; holds one [Fe4S4]-cluster in the dimer interface; No tag cleavage is described, and the theoretical mass of 64 kDa equals twice the 31.9 kDa of His-tagged MarH; also called H1 and H2; source: Rhodobacter capsulatus MM0422 (plasmid-based, anfH …)
- stoichiometry N [2]: 2

- binding result [3]: binds
B2: MarK subunit of the methylthio-alkane reductase catalytic component from Rhodospirillum rubrum (enzyme)
chain: T1 sequence 2
notes: MarK, subunit of the catalytic component of the methylthio-alkane reductase (marHDK) of Rhodospirillum rubrum; 50.8 kDa; No tag is described for MarK; also called K1 and K2; source: Rhodobacter capsulatus MM0422 (plasmid-based, anfH promoter), soluble fraction of the lysate; purified anaerobically with Strep-tagged MarD (Strep-Tactin XT 4Flow, PD-10 desalting)
